The source of these data is patent publication US20190315842A1 (DUKE UNIVERSITY, published 2019).

Test [1] concerns the target ribonucleoprotein (RNP). As to the kind of experiment: AtheNA Multi-Lyte ANA, Ab at 12.5 ug/ml.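 Also: monoclonal antibodies screened for binding to a panel of nuclear autoantigens (SSA, SSB, Sm, RNP, Scl-70, Jo-1, dsDNA, CentB, histones), with anti-HIV and anti-RSV antibodies as controls.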
The target in test [2] is T1, sclerosis autoantigen (Scl-70) (UniProt P11387 2-765, limits assumed).
T1 sequence (looked up): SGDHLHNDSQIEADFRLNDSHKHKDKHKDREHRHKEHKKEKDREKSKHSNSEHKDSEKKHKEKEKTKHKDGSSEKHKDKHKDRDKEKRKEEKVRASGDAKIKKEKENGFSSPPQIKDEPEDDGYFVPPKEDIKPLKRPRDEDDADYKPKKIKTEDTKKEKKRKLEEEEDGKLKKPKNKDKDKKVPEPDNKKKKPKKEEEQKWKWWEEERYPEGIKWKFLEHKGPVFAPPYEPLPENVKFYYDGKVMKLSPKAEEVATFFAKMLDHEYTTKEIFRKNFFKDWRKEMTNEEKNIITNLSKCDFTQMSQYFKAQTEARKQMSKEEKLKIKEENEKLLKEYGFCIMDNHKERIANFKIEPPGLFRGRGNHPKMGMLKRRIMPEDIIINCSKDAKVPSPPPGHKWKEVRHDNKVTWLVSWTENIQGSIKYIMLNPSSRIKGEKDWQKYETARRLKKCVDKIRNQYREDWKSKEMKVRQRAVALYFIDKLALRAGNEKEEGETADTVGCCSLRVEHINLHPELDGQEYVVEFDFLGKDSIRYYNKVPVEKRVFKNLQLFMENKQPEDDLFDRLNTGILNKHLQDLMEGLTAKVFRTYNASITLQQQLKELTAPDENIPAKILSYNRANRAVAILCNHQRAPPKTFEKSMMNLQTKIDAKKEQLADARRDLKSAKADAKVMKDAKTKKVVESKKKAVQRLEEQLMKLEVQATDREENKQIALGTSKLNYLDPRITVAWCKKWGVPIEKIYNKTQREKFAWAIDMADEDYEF
As to the kind of experiment: AtheNA Multi-Lyte ANA, Ab at 12.5 ug/ml.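 Also: monoclonal antibodies screened for binding to a panel of nuclear autoantigens (SSA, SSB, Sm, RNP, Scl-70, Jo-1, dsDNA, CentB, histones), with anti-HIV and anti-RSV antibodies as controls.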

In test [3] the target is T2, systemic lupus erythematosus autoantigen SSB (UniProt P05455 1-408, limits assumed).
T2 sequence (looked up): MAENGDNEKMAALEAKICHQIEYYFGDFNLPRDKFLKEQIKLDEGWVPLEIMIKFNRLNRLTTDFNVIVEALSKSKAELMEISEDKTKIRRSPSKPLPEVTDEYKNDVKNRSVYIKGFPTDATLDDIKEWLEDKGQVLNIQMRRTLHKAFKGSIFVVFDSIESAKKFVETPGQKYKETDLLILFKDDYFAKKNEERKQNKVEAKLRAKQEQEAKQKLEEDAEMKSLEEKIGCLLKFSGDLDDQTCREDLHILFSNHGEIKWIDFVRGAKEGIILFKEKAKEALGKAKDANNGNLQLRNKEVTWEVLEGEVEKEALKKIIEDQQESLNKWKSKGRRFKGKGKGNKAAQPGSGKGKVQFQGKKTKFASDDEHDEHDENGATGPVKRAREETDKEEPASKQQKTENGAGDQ
As to the kind of experiment: AtheNA Multi-Lyte ANA, Ab at 12.5 ug/ml.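 Also: monoclonal antibodies screened for binding to a panel of nuclear autoantigens (SSA, SSB, Sm, RNP, Scl-70, Jo-1, dsDNA, CentB, histones), with anti-HIV and anti-RSV antibodies as controls.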

Test [4] addresses T3, histidine-tRNA ligase (Jo-1) (UniProt P12081 2-509).
T3 sequence (looked up): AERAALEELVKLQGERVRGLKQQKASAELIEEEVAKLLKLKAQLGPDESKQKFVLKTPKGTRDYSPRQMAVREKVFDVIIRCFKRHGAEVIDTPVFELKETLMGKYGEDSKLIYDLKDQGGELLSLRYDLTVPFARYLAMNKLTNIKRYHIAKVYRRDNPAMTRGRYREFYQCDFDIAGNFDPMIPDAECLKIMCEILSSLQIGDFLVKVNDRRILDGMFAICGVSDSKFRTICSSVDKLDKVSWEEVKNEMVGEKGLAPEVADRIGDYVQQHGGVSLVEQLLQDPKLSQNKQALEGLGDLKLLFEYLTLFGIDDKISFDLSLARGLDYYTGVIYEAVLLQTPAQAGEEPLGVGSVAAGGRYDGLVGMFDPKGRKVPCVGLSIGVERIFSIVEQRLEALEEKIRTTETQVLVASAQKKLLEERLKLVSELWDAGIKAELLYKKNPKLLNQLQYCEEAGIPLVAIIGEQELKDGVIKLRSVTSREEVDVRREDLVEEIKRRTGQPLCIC
As to the kind of experiment: AtheNA Multi-Lyte ANA, Ab at 12.5 ug/ml.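 Also: monoclonal antibodies screened for binding to a panel of nuclear autoantigens (SSA, SSB, Sm, RNP, Scl-70, Jo-1, dsDNA, CentB, histones), with anti-HIV and anti-RSV antibodies as controls.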

Test [5] concerns the target T4, Sm (sphingomyelin).
T4 construct: in an ANA panel of nuclear antigens Sm is usually the Smith ribonucleoprotein antigen; Kept, but see recheck
As to the kind of experiment: AtheNA Multi-Lyte ANA, Ab at 12.5 ug/ml.

In test [6] the target is systemic lupus erythematosus autoantigen SSA. As to the kind of experiment: AtheNA Multi-Lyte ANA, Ab at 12.5 ug/ml.
Test [7] deals with T5, GPPPPIDNGDITSFP(GGGK-biotin).
T5 construct: also called biotinylated 15-mer peptide; biotinylated 19-mer
T5 peptide: GPPPPIDNGDITSFPGGGK(Biotin)
As to the kind of experiment: ELISA: biotinylated peptide captured on immobilized Neutravidin, antibody at 0.5 µg/ml, anti-human IgG-HRP/ABTS, OD 405 nm. For orientation: ELISA stands for enzyme-linked immunosorbent assay.

In test [8] the target is ribonucleoprotein (RNP). As to the kind of experiment: AtheNA Multi-Lyte ANA, Ab at 50 ug/ml.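 Also: monoclonal antibodies probed against a nuclear autoantigen panel (SSA, SSB, Sm, RNP, Scl-70, Jo-1, dsDNA, CentB, histones), with anti-HIV 4E10 and palivizumab as control antibodies.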
In test [9] the target is T1, sclerosis autoantigen (Scl-70). As to the kind of experiment: AtheNA Multi-Lyte ANA, Ab at 50 ug/ml.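 Also: monoclonal antibodies probed against a nuclear autoantigen panel (SSA, SSB, Sm, RNP, Scl-70, Jo-1, dsDNA, CentB, histones), with anti-HIV 4E10 and palivizumab as control antibodies.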
Test [10] has as its target T2, systemic lupus erythematosus …. As to the kind of experiment: AtheNA Multi-Lyte ANA, Ab at 50 ug/ml.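 Also: monoclonal antibodies probed against a nuclear autoantigen panel (SSA, SSB, Sm, RNP, Scl-70, Jo-1, dsDNA, CentB, histones), with anti-HIV 4E10 and palivizumab as control antibodies.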
For test [11], the target named is T3, histidine-tRNA ligase (Jo-1). As to the kind of experiment: AtheNA Multi-Lyte ANA, Ab at 50 ug/ml.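 Also: monoclonal antibodies probed against a nuclear autoantigen panel (SSA, SSB, Sm, RNP, Scl-70, Jo-1, dsDNA, CentB, histones), with anti-HIV 4E10 and palivizumab as control antibodies.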
Test [12] has as its target T4, Sm (sphingomyelin). As to the kind of experiment: AtheNA Multi-Lyte ANA, Ab at 50 ug/ml.
Test [13] addresses systemic lupus erythematosus autoantigen SSA. As to the kind of experiment: AtheNA Multi-Lyte ANA, Ab at 50 ug/ml.
Test [14] deals with T6, reduced form of Complement Factor H (CFH), treated with TCEP (human, UniProt P08603 19-1231, disulfides reduced with 10 mM TCEP).
T6 construct: also called reduced CFH; reduced form of CFH
As to the kind of experiment: immunoblot, SDS-PAGE under reducing conditions, antibody at 0.5 µg/ml, anti-human IgG-HRP, chemiluminescence; lane numbers as in Table 10. On the technique in general: A western blot detects proteins with antibodies after separation by electrophoresis.

Test [15] addresses T7, 15-mer peptide GPPPPIDNGDITSFP (SEQ ID NO: 114) (human).
T7 construct: Immobilized for SPR; also called parent peptide
T7 peptide: GPPPPIDNGDITSFP
As to the kind of experiment: assay and antigen not given; Example 10, epitope mapping on the 15-mer peptide.

In test [16] the target is T8, Complement Factor H (CFH) protein, full-length (human, UniProt P08603 19-1231).
T8 construct: also called full-length CFH; native CFH
As to the kind of experiment: immunoblot, SDS-PAGE under non-reducing conditions, antibody at 0.5 µg/ml, anti-human IgG-HRP, chemiluminescence; lane numbers as in Table 10.

Test [17] has as its target ribonucleoprotein (RNP). As to the kind of experiment: AtheNA Multi-Lyte ANA, Ab at 6.25 ug/ml.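 Also: monoclonal antibodies screened for reactivity against a panel of nuclear autoantigens, with an anti-HIV and an anti-RSV monoclonal antibody serving as controls.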
The target in test [18] is T1, sclerosis autoantigen (Scl-70). As to the kind of experiment: AtheNA Multi-Lyte ANA, Ab at 6.25 ug/ml.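 Also: monoclonal antibodies screened for reactivity against a panel of nuclear autoantigens, with an anti-HIV and an anti-RSV monoclonal antibody serving as controls.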
Test [19] has as its target T2, systemic lupus erythematosus …. As to the kind of experiment: AtheNA Multi-Lyte ANA, Ab at 6.25 ug/ml.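 Also: monoclonal antibodies screened for reactivity against a panel of nuclear autoantigens, with an anti-HIV and an anti-RSV monoclonal antibody serving as controls.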
The target in test [20] is T3, histidine-tRNA ligase (Jo-1). As to the kind of experiment: AtheNA Multi-Lyte ANA, Ab at 6.25 ug/ml.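 Also: monoclonal antibodies screened for reactivity against a panel of nuclear autoantigens, with an anti-HIV and an anti-RSV monoclonal antibody serving as controls.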
In test [21] the target is T4, Sm (sphingomyelin). As to the kind of experiment: AtheNA Multi-Lyte ANA, Ab at 6.25 ug/ml.
Test [22] addresses systemic lupus erythematosus autoantigen SSA. As to the kind of experiment: AtheNA Multi-Lyte ANA, Ab at 6.25 ug/ml.
Test [23] concerns the target ribonucleoprotein (RNP). As to the kind of experiment: AtheNA Multi-Lyte ANA, Ab at 28.3 ug/ml.
In test [24] the target is T4, Sm (sphingomyelin). As to the kind of experiment: AtheNA Multi-Lyte ANA, Ab at 28.3 ug/ml.
Test [25] concerns the target systemic lupus erythematosus autoantigen SSA. As to the kind of experiment: AtheNA Multi-Lyte ANA, Ab at 28.3 ug/ml.
Test [26] has as its target ribonucleoprotein (RNP). As to the kind of experiment: AtheNA Multi-Lyte ANA, Ab at 7.075 ug/ml.
The target in test [27] is T4, Sm (sphingomyelin). As to the kind of experiment: AtheNA Multi-Lyte ANA, Ab at 7.075 ug/ml.
In test [28] the target is systemic lupus erythematosus autoantigen SSA. As to the kind of experiment: AtheNA Multi-Lyte ANA, Ab at 7.075 ug/ml.
Test [29] has as its target ribonucleoprotein (RNP). As to the kind of experiment: AtheNA Multi-Lyte ANA, Ab at 3.538 ug/ml.
The target of test [30] is T4, Sm (sphingomyelin). As to the kind of experiment: AtheNA Multi-Lyte ANA, Ab at 3.538 ug/ml.
The target of test [31] is systemic lupus erythematosus autoantigen SSA. As to the kind of experiment: AtheNA Multi-Lyte ANA, Ab at 3.538 ug/ml.

In general, EC50 refers to the midpoint of the concentration-response curve.

Where no end group is shown, it is not given here. The star is where a group is joined. Biotin = O=C1N[C@H]2[C@H](CS[C@H]2CCCCC(=O)*)N1

T6 sequence (P08603 19-1231 limits assumed): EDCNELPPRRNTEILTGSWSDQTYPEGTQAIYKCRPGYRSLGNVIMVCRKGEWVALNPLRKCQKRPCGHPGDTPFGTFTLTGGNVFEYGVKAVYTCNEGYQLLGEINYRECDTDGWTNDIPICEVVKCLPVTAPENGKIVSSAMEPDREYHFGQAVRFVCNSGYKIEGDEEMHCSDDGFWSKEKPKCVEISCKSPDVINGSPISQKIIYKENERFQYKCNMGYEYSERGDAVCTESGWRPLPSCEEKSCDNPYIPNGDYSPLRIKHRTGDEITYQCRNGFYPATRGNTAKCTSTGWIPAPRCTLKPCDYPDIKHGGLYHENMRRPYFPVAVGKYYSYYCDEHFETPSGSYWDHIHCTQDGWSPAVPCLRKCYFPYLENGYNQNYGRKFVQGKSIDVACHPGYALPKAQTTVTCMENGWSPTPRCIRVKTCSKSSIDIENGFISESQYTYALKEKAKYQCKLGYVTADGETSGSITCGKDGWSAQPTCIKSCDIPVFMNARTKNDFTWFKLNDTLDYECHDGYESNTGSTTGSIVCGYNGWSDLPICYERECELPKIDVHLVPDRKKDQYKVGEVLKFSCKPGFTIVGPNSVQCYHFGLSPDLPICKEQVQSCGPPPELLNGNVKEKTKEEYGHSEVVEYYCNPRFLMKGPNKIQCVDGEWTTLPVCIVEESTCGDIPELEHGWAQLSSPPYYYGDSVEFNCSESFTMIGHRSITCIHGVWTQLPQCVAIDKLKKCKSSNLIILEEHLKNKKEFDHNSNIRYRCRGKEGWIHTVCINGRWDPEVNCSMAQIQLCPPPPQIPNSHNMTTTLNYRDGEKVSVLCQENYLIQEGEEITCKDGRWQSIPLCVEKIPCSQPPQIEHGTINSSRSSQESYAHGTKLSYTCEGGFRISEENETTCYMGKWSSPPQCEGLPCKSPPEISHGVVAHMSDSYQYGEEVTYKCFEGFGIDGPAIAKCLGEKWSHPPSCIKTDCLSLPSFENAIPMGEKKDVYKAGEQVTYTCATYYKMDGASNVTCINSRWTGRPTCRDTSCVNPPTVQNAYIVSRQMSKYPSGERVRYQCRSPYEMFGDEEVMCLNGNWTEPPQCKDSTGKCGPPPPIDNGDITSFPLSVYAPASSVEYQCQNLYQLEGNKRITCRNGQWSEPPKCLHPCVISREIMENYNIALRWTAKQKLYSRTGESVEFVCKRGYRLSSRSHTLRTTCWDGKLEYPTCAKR
T8 sequence (P08603 19-1231 limits assumed): as above

B1: Ab7960/293i (antibody, IgG1, V domains shown)
VH: LVESGGGVVQPGKSLRLSCVASGFSFSTYGMHWVRQAPGKGLEWVAVMSFDGKTKYYADSVKGRFTISRDNPKNTLYLQMNSLRSEDTAVYYCAKGGAAAAVFDSWGPGILLTVSS
VL: MTQSPNSLAVSLGGRATINCKASQSILYRSNNKNYLAWYQHKAGQPPKLLIYWASTRESGVPERFSGSGSRTDFTLTINGLQAEDVAVYYCQQYYNPPWTFGQGTKVEIK
notes: Recombinant human antibody with IgG1 heavy chain backbone and kappa light chain constant; they begin at LVESGGG and MTQSP; also called mAb 7960; mAb7960
As to B1, the AtheNA signal in test [1] is 3; in [2], 3; in test [3], 8; in [4] it was 4; in [5], 4; in test [6], 4. The AtheNA signal in [8] amounted to 4; in test [9] it was 3; in test [10] it was 8; in [11] it was 5; in [12], 2; in test [13], 6. Further, the AtheNA signal is 2 in test [17]; 1 in test [18]; 7 in test [19]; 2 in test [20]; 2 in test [21]; 2 in test [22]. For the same molecule, the binding result in test [7], in test [14] and in test [16] was “binds” in each case. Moreover, a half-maximal effect in [15] (EC50) was put at 7.82 ng/mL.

B2: Ab7970 (antibody, IgG1, V domains shown)
VH: LVESGGGVVQPGRSLRLSCAASGLTFSFYNFHWVRQTPGKGLEWVAGISYDATRTNYAGSVTGRFTISRDNSKKMLYLQMSSLGPQDTAVYHCARDRSDGQLHKVAFDSWGQGALVTVSS
VL: MTQSPDSLTLSLGERATINCRSSRTVLYRSNNKNYLAWYQHKPGQPPKLLMSWASTRETGVPDRFSGSGSGTHFTLTITSLQPEDVAVYYCQQYYSPPWTFGQGTKVEIR
notes: IgG1 heavy chain backbone and kappa constant; also called clone 18; pH007970/pK005991_6004
For B2, the binding result in test [7] is “binds”. Besides, the AtheNA signal is 56 in test [23]; 22 in test [24]; 165 in test [25]; 44 in [26]; 12 in test [27]; 120 in [28]. Besides, the figures for the AtheNA signal in test [29], in [30] and in [31] were 34, 10 and 84, respectively.
